B1: recombinant human protein kinase CK2 holoenzyme coupled to fluorescein isothiocyanate (FITC) (complex)
chain 1: MSGPVPSRARVYTDVNTHRPREYWDYESHVVEWGNQDDYQLVRKLGRGKYSEVFEAINITNNEKVVVKILKPVKKKKIKREIKILENLRGGPNIITLADIVKDPVSRTPALVFEHVNNTDFKQLYQTLTDYDIRFYMYEILKALDYCHSMGIMHRDVKPHNVMIDHEHRKLRLIDWGLAEFYHPGQEYNVRVASRYFKGPELLVDYQMYDYSLDMWSLGCMLASMIFRKEPFFHGHDNYDQLVRIAKVLGTEDLYDYIDKYNIELDPRFNDILGRHSRKRWERFVHSENQHLVSPEALDFLDKLLRYDHQSRLTAREAMEHPYFYTVVKDQARMGSSSMPGGSTPVSSANMMSGISSVPTPSPLGPLAGSPVIAAANPLGMPVPAAAGAQQ
chain 2: not shown
modifications: FITC covalently coupled to the holoenzyme, sites not stated | FITC covalently coupled to the holoenzyme, sites not stated
notes: catalytic subunit CK2α of human protein kinase CK2; regulatory subunit CK2β of human protein kinase CK2; FITC-labelled in the flow cytometry; also called CK2-FITC; fluorophore coupled CK2; source: E. coli BL21(DE3), purified (protocol of Grankowski et al. with modifications), FITC labeling Kit (Calbiochem); copies: 2 + 2

In test [1] the target is T1, human αS1-casein (170 aa) displayed on E. coli UT5600(DE3) by autodisplay (plasmid pKP10) (human, UniProt P47710 16-185).
T1 construct: human αS1-casein as autodisplay passenger, 510 nt, 170 aa as printed; Passenger between the cleaved signal peptide of the autotransporter precursor and the linker; also called full-length αS1-casein; not shown: AIDA-I autotransporter linker and β-barrel, C-terminal, kept
T1 sequence (looked up): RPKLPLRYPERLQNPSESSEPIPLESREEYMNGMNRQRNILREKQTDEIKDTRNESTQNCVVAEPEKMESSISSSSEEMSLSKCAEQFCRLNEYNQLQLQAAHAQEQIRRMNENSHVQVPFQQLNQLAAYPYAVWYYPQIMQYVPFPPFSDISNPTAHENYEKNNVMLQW
The experiment in a line: flow cytometry on cells; E. coli UT5600(DE3) cells displaying the passenger by autodisplay incubated with fluorescein-coupled CK2 holoenzyme for 30 min at 37 °C in 50 mM Tris/HCl pH 7.4, 100 mM NaCl, 10 mM MgCl2, 1 mM DTT, 200 µM ATP; washed; excitation 488 nm, 527/30 nm filter; host strain without plasmid as control. As to conditions: one partner purified.

Test [2] has as its target B1. The experiment in a line: cell-based or functional assay.
For test [3], the target named is human CK2α, catalytic subunit alone (unlabelled) (human, UniProt P68400 1-391). In words: cell-based or functional assay.
The target in test [4] is B1. The experiment in a line: cell-based or functional assay. This is another data set of the same source.

The record followed here is article PMC5374410, “Identification of a Potent Allosteric Inhibitor of Human Protein Kinase CK2 by Bacterial Surface Display Library Screening” (Pharmaceuticals, 2017).

On to B1, for which the “fold fluorescence intensity over control cells” value in test [1] came out at 10 fold.
In the case of DCRGLIVMIKLH [peptide B2 (free synthetic peptide)], in test [2], the “Ki, taken as equal to the IC50 of the CE kinase assay (non-competitive inhibition with α = 1)” value was 800 nM. The “IC50 of inhibition of the kinase activity of the catalytic subunit CK2α alone, CE assay” value in test [3] came out at 800 nM. The “IC50 of inhibition of the kinase activity of (unlabelled) CK2 holoenzyme, CE assay with substrate peptide …” value in test [4] was determined as 800 nM.
